Positions count from the first letter of the chain named.
How the values were obtained:
Details in all cases: remark: other sources report otherwise
[1] = target: T1, His-tagged SMAD4 R361H, Q13485; test: AlphaScreen or HTRF; multiplexed TR-FRET, PPI read-out (Tb-D2), lysate of HEK293T cells co-expressing His-SMAD4 and Flag-SMAD3 (WT or mutated) with 5'-FAM-SBE4 WT dsDNA; anti-FLAG M2-Tb cryptate and anti-6xHis-D2 antibodies; FRET buffer 20 mM Tris-HCl pH 7.0, 50 mM NaCl, 0.01% NP-40; 4°C for 30 min
T1 chain: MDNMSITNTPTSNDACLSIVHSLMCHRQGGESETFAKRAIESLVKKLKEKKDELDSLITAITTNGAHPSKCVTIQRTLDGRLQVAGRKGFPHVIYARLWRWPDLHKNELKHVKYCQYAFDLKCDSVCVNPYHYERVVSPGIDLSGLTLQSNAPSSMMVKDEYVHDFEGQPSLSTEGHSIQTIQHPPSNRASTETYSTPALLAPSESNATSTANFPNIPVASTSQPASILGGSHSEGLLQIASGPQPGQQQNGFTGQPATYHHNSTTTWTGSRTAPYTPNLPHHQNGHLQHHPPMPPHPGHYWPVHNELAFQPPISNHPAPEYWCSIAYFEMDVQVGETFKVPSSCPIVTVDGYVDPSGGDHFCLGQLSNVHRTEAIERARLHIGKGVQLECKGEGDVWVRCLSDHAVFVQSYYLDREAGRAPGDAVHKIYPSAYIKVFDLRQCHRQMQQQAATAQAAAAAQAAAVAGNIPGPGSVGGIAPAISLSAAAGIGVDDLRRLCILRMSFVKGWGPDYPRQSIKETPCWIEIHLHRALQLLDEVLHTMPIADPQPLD

[2] = target: T2, His-tagged SMAD4 R361C, Q13485; test: as above
T2 chain: T1 chain with H361C

[3] = target: T3, His-tagged SMAD4 WT (Mothers against decapentaplegic homolog 4), Q13485; test: AlphaScreen or HTRF; multiplexed TR-FRET, PPI read-out (Tb-D2), lysate of HEK293T cells co-expressing His-SMAD4 and Flag-SMAD3 with point-mutated 5'-FAM-SBE4 Mut dsDNA in place of the WT dsDNA
T3 chain: T1 chain with H361R

B1: Flag-tagged SMAD3 WT, P84022 1-425 (natural protein)
chain: MSSILPFTPPIVKRLLGWKKGEQNGQEEKWCEKAVKSLVKKLKKTGQLDELEKAITTQNVNTKCITIPRSLDGRLQVSHRKGLPHVIYCRLWRWPDLHSHHELRAMELCEFAFNMKKDEVCVNPYHYQRVETPVLPPVLVPRHTEIPAEFPPLDDYSHSIPENTNFPAGIEPQSNIPETPPPGYLSEDGETSDHQMNHSMDAGSPNLSPNPMSPAHNNLDLQPVTYCEPAFWCSISYYELNQRVGETFHASQPSMTVDGFTDPSNSERFCLGLLSNVNRNAAVELTRRHIGRGVRLYYIGGEVFAECLSDSAIFVQSPNCNQRYGWHPATVCKIPPGCNLKIFNNQEFAALLAQSVNQGFEAVYQLTRMCTIRMSFVKGWGAEYRRQTVTSTPCWIELHLNGPLQWLDKVLTQMGSPSIRCSSVS
B1 showed a reduction of the PPI signal against SMAD4 WT [1] of 75%, a reduction of the PPI signal against SMAD4 WT [2] of 75% and a decrease of the PPI signal with 5'-FAM-SBE4 Mut dsDNA against WT dsDNA [3] of 15%.
